Biological target: T1, dDis3-FLAG (Drosophila melanogaster, UniProt Q9VC93 1-982)
T1 sequence (looked up): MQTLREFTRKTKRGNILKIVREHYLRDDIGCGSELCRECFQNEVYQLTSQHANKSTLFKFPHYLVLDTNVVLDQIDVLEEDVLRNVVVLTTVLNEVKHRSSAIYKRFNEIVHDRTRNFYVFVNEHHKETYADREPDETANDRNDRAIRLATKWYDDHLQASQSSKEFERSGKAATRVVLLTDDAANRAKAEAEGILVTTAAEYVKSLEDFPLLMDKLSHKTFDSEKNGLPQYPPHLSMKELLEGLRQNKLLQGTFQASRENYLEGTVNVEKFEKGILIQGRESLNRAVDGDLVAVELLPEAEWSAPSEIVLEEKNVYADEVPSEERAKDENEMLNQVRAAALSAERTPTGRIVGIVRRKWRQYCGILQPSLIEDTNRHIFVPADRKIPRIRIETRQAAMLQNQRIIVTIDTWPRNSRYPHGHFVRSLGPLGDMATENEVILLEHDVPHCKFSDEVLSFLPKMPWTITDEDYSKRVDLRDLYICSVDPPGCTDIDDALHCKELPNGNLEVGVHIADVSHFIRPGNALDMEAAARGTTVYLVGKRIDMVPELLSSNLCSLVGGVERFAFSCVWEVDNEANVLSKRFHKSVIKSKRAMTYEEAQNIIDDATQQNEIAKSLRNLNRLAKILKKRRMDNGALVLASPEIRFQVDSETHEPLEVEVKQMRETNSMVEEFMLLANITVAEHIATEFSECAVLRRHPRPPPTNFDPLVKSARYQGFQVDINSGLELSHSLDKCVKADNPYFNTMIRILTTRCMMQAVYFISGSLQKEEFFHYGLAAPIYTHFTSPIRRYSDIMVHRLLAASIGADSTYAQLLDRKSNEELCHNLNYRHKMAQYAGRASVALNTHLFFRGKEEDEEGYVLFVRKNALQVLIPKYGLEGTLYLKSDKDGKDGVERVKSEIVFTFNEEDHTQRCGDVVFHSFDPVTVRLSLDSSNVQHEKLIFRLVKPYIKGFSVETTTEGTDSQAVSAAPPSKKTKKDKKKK
Test: co-IP

fold reduction in recovery (0.2 M Mg2+ against 0.01 M Mg2+): ~2 fold
B1: dRrp6 (natural protein, UniProt Q9VFF3 1-900, looked up)
chain: MPRTPKRVHQEAKEESAQADQPPKKSASEDVEAFTNKGFKNAIAATKAANAFPQGTARALYLSYPGYARVMEDLTQRVVALIGNVLHSKDIKGDIKKRQPEEQFEMVQECNDVLFERITTNLDIKGGLRRNTQQVVEAQVDVMSSSTSIEPAVASPQTQGTPKAGSWNRTTGTPQRSMVSARLFTAKNIVRPQTQFREPVDNSAQNPFVPRLKEKPNSLKPLALLPEYDDAGNVQSYLHPYEFELLKFQPPEEQFQKQKPVLPALMAETELMVVDTVEKLKQALEELRQAPQIAIDVEHHSYRTFMGITCLVQMSTRSKDYIFDTLILRDDMHILNLVLTDPKKLKILHGADLDIEWLQRDLSLYIVNMFDTHRAAKALNMARLSLAYLLKHYLDLDVDKSLQLADWRMRPLPQQLVDYARQDTHFLIYVYGRMTNDLLQQHAEPGLLGSVYQQSTDVCKKRYNKPHIGPESHLDLVRKTKRSFDNRQLYALRGIFEWRDATARSEDESYGYVLPNHMMLQIAESLPREMQGILACCNPIPPLVRQQLHTLHQIVLKARDQPLVKPILEAHSSTQAALPPSTKDFSSKLYCPHDFSQLEEIRDDLPTLLKRNSTTGKLEVPNKEEVAKVDPTLAAPAMALFEKQSKPTQEEEQRWAHLRKESQTMRMPYKRYLAILPLMVQLKADQLARERSELQKRQLCPAAPTVEQNIKLEAHAIGKEDDDMYSVPLKEQLKRKHPQANVKTDPEQQPTASKRPRKDENSQTKPPVKIEPVEKVQQALGESDDEVVEVPIERQATEPPKPSPAQNNRKQKKNQFQRGFKAKNRGNHPQSSSQQVPQHKGTGNFDYKNVDFRQFKGGAQRARGTEIKQQIRGKNRPNNRNNKQFNKLFTFSNVRKEGKK
